Key:
HLA-B*35:01 = assay: IEDB peptide-MHC binding, purified MHC/competitive/fluorescence; ≥ and ≤ were set here for values at or beyond the usual limits of such assays; conditions: source organism: Homo sapiens
HLA-A*01:01 = assay: as above; conditions: source organism: Homo sapiens
HLA-B*14:02 = assay: as above; conditions: source organism: Homo sapiens
HLA-A*68:02 = assay: as above; conditions: source organism: Homo sapiens
HLA-A*25:01 = assay: as above; conditions: source organism: Homo sapiens
HLA-A*24:02 = assay: as above; conditions: source organism: Homo sapiens
HLA-B*40:02 = assay: as above; conditions: source organism: Homo sapiens
HLA-B*07:02 = assay: as above; conditions: source organism: Homo sapiens
HLA-A*29:02 [1] = assay: as above; conditions: source organism: Homo sapiens
HLA-A*03:01 [2] = assay: as above; conditions: source organism: Homo sapiens
HLA-B*44:03 = assay: as above; conditions: source organism: Homo sapiens
HLA-B*37:01 = assay: as above; conditions: source organism: Homo sapiens
HLA-B*53:01 = assay: as above; conditions: source organism: Homo sapiens
HLA-A*31:01 = assay: as above; conditions: source organism: Homo sapiens
HLA-A*02:01 [3] = assay: as above; conditions: source organism: Homo sapiens
HLA-A*11:01 = assay: as above; conditions: source organism: Homo sapiens
HLA-B*08:01 = assay: as above; conditions: source organism: Homo sapiens
HLA-B*58:01 = assay: as above; conditions: source organism: Homo sapiens
HLA-B*18:01 [4] = assay: as above; conditions: source organism: Homo sapiens
HLA-B*51:01 [5] = assay: as above; conditions: source organism: Homo sapiens
HLA-A*02:16 = assay: IEDB peptide-MHC binding, purified MHC/direct/fluorescence; filed as Kd, often an IC50 or EC50 that approximates it; ≥ and ≤ were set here for values at or beyond the usual limits of such assays; conditions: source organism: Escherichia coli O157:H7 str. EC869
HLA-A*02:11 = assay: as above; conditions: source organism: Escherichia coli O157:H7 str. EC869
HLA-A*02:19 = assay: as above; conditions: source organism: Escherichia coli O157:H7 str. EC869
HLA-B*15:17 = assay: as above; conditions: source organism: Escherichia coli O157:H7 str. EC869
HLA-B*46:01 = assay: as above; conditions: source organism: Escherichia coli O157:H7 str. EC869
HLA-A*24:03 = assay: as above; conditions: source organism: Escherichia coli O157:H7 str. EC869
HLA-A*26:01 = assay: as above; conditions: source organism: Escherichia coli O157:H7 str. EC869
HLA-B*39:01 = assay: as above; conditions: source organism: Escherichia coli O157:H7 str. EC869
HLA-A*29:02 [6] = assay: as above; conditions: source organism: Escherichia coli O157:H7 str. EC869
HLA-A*03:01 [7] = assay: as above; conditions: source organism: Escherichia coli O157:H7 str. EC869
HLA-B*27:03 = assay: as above; conditions: source organism: Escherichia coli O157:H7 str. EC869
HLA-A*02:01 [8] = assay: as above; conditions: source organism: Escherichia coli O157:H7 str. EC869
HLA-B*57:01 = assay: as above; conditions: source organism: Escherichia coli O157:H7 str. EC869
HLA-A*02:12 = assay: as above; conditions: source organism: Escherichia coli O157:H7 str. EC869
HLA-B*18:01 [9] = assay: as above; conditions: source organism: Escherichia coli O157:H7 str. EC869
HLA-A*02:06 = assay: as above; conditions: source organism: Escherichia coli O157:H7 str. EC869
HLA-B*51:01 [10] = assay: as above; conditions: source organism: Escherichia coli O157:H7 str. EC869
HLA-A*02:03 = assay: as above; conditions: source organism: Escherichia coli O157:H7 str. EC869

Sequence	IC50 (HLA-B*35:01) [µM]	IC50 (HLA-A*01:01) [µM]	IC50 (HLA-B*14:02) [µM]	IC50 (HLA-A*68:02) [µM]	IC50 (HLA-A*25:01) [µM]	IC50 (HLA-A*24:02) [µM]	IC50 (HLA-B*40:02) [µM]	IC50 (HLA-B*07:02) [µM]	IC50 (HLA-A*29:02 [1]) [µM]	IC50 (HLA-A*03:01 [2]) [µM]	IC50 (HLA-B*44:03) [µM]	IC50 (HLA-B*37:01) [µM]	IC50 (HLA-B*53:01) [µM]	IC50 (HLA-A*31:01) [µM]	IC50 (HLA-A*02:01 [3]) [µM]	IC50 (HLA-A*11:01) [µM]	IC50 (HLA-B*08:01) [µM]	IC50 (HLA-B*58:01) [µM]	IC50 (HLA-B*18:01 [4]) [µM]	IC50 (HLA-B*51:01 [5]) [µM]	further results
KVADVDLAVPV	≥ 20	≥ 20	≥ 20	0.0243	≥ 20	≥ 20	0.745	≥ 20	≥ 20	≥ 20	≥ 20	0.907	≥ 20	≥ 20	0.0193	≥ 20	≥ 20	≥ 20	≥ 20	≥ 20	
SQFNHWFGE																					Kd (HLA-A*02:16): ≥ 20 µM; Kd (HLA-A*02:11): ≥ 20 µM; Kd (HLA-A*02:19): ≥ 20 µM; Kd (HLA-B*15:17): ≥ 20 µM; Kd (HLA-B*46:01): ≥ 20 µM; Kd (HLA-A*24:03): ≥ 20 µM; Kd (HLA-A*26:01): ≥ 20 µM; Kd (HLA-B*39:01): ≥ 20 µM; Kd (HLA-A*29:02 [6]): ≥ 20 µM; Kd (HLA-A*03:01 [7]): ≥ 20 µM; Kd (HLA-B*27:03): ≥ 20 µM; Kd (HLA-A*02:01 [8]): ≥ 20 µM; Kd (HLA-B*57:01): ≥ 20 µM; Kd (HLA-A*02:12): ≥ 20 µM; Kd (HLA-B*18:01 [9]): ≥ 20 µM; Kd (HLA-A*02:06): 0.086 µM; Kd (HLA-B*51:01 [10]): ≥ 20 µM; Kd (HLA-A*02:03): ≥ 20 µM
GSSDFQVHFLK	≥ 20	≥ 20	≥ 20	≥ 20	≥ 20	≥ 20	4.59	≥ 20	1.46	1.02	≥ 20	≥ 20	≥ 20	1.05	≥ 20	0.0665	≥ 20	≥ 20	≥ 20	≥ 20	

Source: the Immune Epitope Database (IEDB)
